Experimental data: patent publication US20110223176A1 (AbbVie / Abbott, published 2011)
Read-outs that look alike come from different tables or passages of the source.

Key:
[1] = molecular target: T1, human BSG2 (basigin isoform 2) on the cell surface (human, UniProt P35613 140-385); assay: cell-based ECL (MSD) binding on cells expressing human BSG2
T1 construct: Presented on stably transfected BAF3 cells or endogenously on human tumor cell lines (HepG2, MiaPaCa-2, DoHH-2); also called hBSG2; CD147
T1 sequence: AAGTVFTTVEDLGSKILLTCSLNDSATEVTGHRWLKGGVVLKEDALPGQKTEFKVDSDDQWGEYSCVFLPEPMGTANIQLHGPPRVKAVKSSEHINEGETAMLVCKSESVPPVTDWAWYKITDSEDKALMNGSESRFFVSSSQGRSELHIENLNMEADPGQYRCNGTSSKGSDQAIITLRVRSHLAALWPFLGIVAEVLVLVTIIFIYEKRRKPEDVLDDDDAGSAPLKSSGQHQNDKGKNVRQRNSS
Protocol: (§1) Cells were plated at 25,000 cells/well in 25 μl PBS using 96 well MSD high binding plates (MSD, catalogue no. L11XB-3), and incubated at 37° C. for 1 hour. 25 μl/well of blocking solution (30% serum in PBS) was added to the plates for 30 minutes at room temperature with mild agitation. Plates were then incubated with 25 μl/well of BSG2 antibodies (10 μg/ml) diluted in assay buffer (10% serum in PBS) for 1 hour at room temperature with mild agitation, and then washed 3× with PBS. Goat anti-mouse or anti-human IgG sulfotag was added at 1 μg/ml for 1 hour with mild agitation, and plates were washed 3× with PBS. After the final wash, plates were incubated with 2×MSD surfactant-free read buffer (catalogue no. R92TD-2) and the signal was detected on a MSD SECTOR Imager 6000. Data were analyzed using Graphpad Prism software and EC₅₀ values were reported.
Select humanized variants were also tested for their functionality using ADCC and cell viability assays (described in Examples 1.6 and 1.7).

[2] = molecular target: T1, human BSG2 (basigin isoform 2) on the …; assay: flow cytometry (FACS) on HepG2 hepatocellular carcinoma cells (cell-surface BSG2); HepG2 hepatocellular carcinoma cells (endogenous BSG2), not BAF3 transfectants
Protocol: (§2) Stable cell lines overexpressing cell-surface BSG2 or human tumor cell lines were harvested from tissue culture flasks, washed three times and resuspended in phosphate buffered saline (PBS) containing 1% bovine serum albumin and 1 mM CaCl₂ (FACS buffer). 5×10⁵ cells were incubated with antibodies at various concentrations in FACS buffer for 60 minutes on ice. Cells were washed twice and the bound murine monoclonal antibody was detected with a goat Fab′2 anti-mouse IgM+IgG+IgA (H+L) R-phycoerythrin-conjugated antibody (Southern Biotechnology Associates, Inc., Birmingham, Ala., Catalog No. 1012-08) diluted 1:500. Following incubation on ice (4° C., 60 minutes), cells were washed three times and resuspended in FACS buffer. Fluorescence was measured using a Becton Dickinson FACSCalibur-HTS (Becton Dickinson, San Jose, Calif., US). Data were analyzed using Graphpad Prism software and EC₅₀ values were reported as the concentration of antibody to achieve 50% of maximal BSG2 antibodies binding to BSG2 expressing cells.

[3] = molecular target: T2, cynomolgus monkey BSG2 on the cell surface (cynomolgus monkey); assay: receptor binding assay, Eu-labeled antibody on cells expressing cynomolgus BSG2
T2 construct: whole, on cells; also called BAF3-cyno BSG2; Cyno BSG2
Protocol: Cell lines expressing BSG2 were harvested and washed once in assay buffer (PBS, 0.1% BSA, 0.02% Na Azide, 10 mM EDTA) and resuspended to 5×10⁶ cells per mL. Serial 1:2 dilutions of ⁺³Eu-labeled anti-BSG2 antibody stock in assay buffer were made for final concentrations ranging from 1.6×10⁻⁸-7.7×10⁻¹² M, and a 4 mg/mL solution of unlabeled anti-BSG2 antibody was also prepared. To 96 well round bottom plates, 25 μl of ⁺³Eu-labeled antibody dilutions were added to 25 μl buffer (total counts), or 25 μl of unlabeled antibody were added to 25 μl buffer (background counts). 50 μl of cells at 2.5×10⁵ cells per well were then added to all samples, mixed gently, and incubated on ice for 1 hour. […] Signal was determined by incubating samples with 150 μL/well of enhancement buffer and read using Envision. The specific counts were determined by subtracting the background counts (cells+labeled antibody+excess cold antibody) from the corresponding total counts (cells+labeled antibody) for each antibody concentration. The labeled antibody concentration versus total counts was analyzed using Graphpad Prism 4 to calculate Kd and Bmax values.
(§3) BSG2 antibody binding activities against whole cells expressing human or cynomolgus monkey BSG2 were assessed by ECL using MSD technology (described in Example 1.3) and the receptor binding assay (described in Example 1.4) and are shown in Table 11.

[4] = molecular target: T2, cynomolgus monkey BSG2 on the cell …; assay: flow cytometry (FACS) on BAF3 cells expressing cynomolgus BSG2
Protocol: as §2

[5] = molecular target: T1, human BSG2 (basigin isoform 2) on the …; assay: flow cytometry (FACS) on BAF3 cells expressing human BSG2
Protocol: as §2

[6] = molecular target: T1, human BSG2 (basigin isoform 2) on the …; assay: receptor binding assay, Eu-labeled antibody on cells expressing human BSG2
Protocol: (§4) Cell lines expressing BSG2 were harvested and washed once in assay buffer (PBS, 0.1% BSA, 0.02% Na Azide, 10 mM EDTA) and resuspended to 5×10⁶ cells per mL. Serial 1:2 dilutions of ⁺³Eu-labeled anti-BSG2 antibody stock in assay buffer were made for final concentrations ranging from 1.6×10⁻⁸-7.7×10⁻¹² M, and a 4 mg/mL solution of unlabeled anti-BSG2 antibody was also prepared. To 96 well round bottom plates, 25 μl of ⁺³Eu-labeled antibody dilutions were added to 25 μl buffer (total counts), or 25 μl of unlabeled antibody were added to 25 μl buffer (background counts). 50 μl of cells at 2.5×10⁵ cells per well were then added to all samples, mixed gently, and incubated on ice for 1 hour. Cell bound antibody was then separated from unbound antibody by transferring 20 μL of the reaction mixture to Acrowell 96 well filter plates (Pall PN 5020), centrifuged for 5 min (2200 rpm), washed 3× with 150 μL cold assay buffer, and centrifuged for 5 min. Signal was determined by incubating samples with 150 μL/well of enhancement buffer and read using Envision. The specific counts were determined by subtracting the background counts (cells+labeled antibody+excess cold antibody) from the corresponding total counts (cells+labeled antibody) for each antibody concentration. The labeled antibody concentration versus total counts was analyzed using Graphpad Prism 4 to calculate Kd and Bmax values.
as §3

[7] = molecular target: T2, cynomolgus monkey BSG2 on the cell …; assay: cell-based ECL (MSD) binding on whole cells expressing cynomolgus BSG2
Protocol: as §1, §3

[8] = molecular target: T1, human BSG2 (basigin isoform 2) on the …; assay: receptor binding assay, Eu-labeled antibody on cells expressing human BSG2; remark: listed apart in the source
Protocol: as §4

- EC50 [1]: 0.6 nM
- EC50 [2]: 0.32 nM
- Kd [3]: 3.6 nM
- EC50 [4]: 0.35 nM
- EC50 [5]: 0.41 nM
- Kd [6]: 2 nM
- EC50 [7]: 7.6 nM
- Kd [8]: 2 nM
B1: mouse anti-human BSG2 monoclonal antibody ML64-6A11-3A3 (antibody, mouse IgG2a, V domains shown)
VH: EVKLEESGGGLVQPGGSMKLSCVASGFTFSNFWMDWVRQSPEKGLEWIAGIRLKSYNYATHYAESVKGRFTISRDDSKSSVYLQMNNLRAEDTGIYYCTDWDGAYWGQGTLVTVSA
VL: DIVMTQSHKFMSTSVGDRVSITCKASQDVSTDVAWYQQKPGQSPKLLIYSASYRYTGVPDRFTGSGSGTDFTFTISSVQAEDLAVYYCQQHYSTPFTFGSGTKLEIK
notes: Hybridoma antibody, mouse IgG2a/kappa; also called 6A11-3A3 parental mouse antibody; Ab 3A3
